Laboratory results reported in PMC6423285.

What was measured:
NBS1 = NBS1 (UniProt O60934); assay: peptide-bead pull-down from cell lysate; conditions: reference: non-phospho peptide …; sites S462
NBS1 FHA+BRCT1/2 = NBS1 FHA+BRCT1/2 (UniProt O60934); assay: peptide-bead pull-down of purified GST fusion; conditions: reference: non-phospho peptide …; sites S462

UFL1 (from UniProt O94874) pS462 peptide
binding against the reference (NBS1): stronger
binding against the reference (NBS1 FHA+BRCT1/2): stronger
